{"source": "paper PMC3682478", "target": "E. coli RNA polymerase in elongating complexes and paused transcription complexes (transcription assays) (E. coli) (UniProt P0A7Z4)", "sequence (P0A7Z4 whole entry, chain 1 of 3, the tested form may be a part)": "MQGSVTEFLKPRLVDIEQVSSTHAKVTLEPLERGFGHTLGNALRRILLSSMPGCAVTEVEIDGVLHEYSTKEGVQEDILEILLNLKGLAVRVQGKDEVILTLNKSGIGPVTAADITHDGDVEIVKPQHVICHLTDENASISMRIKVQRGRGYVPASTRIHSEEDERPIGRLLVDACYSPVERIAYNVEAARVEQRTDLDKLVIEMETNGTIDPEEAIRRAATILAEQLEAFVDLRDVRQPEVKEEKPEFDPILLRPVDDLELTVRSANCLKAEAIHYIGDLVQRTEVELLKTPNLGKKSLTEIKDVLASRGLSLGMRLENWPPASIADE", "sequence (P0A8V2 whole entry, chain 2 of 3, further chain, the tested form may be a part)": "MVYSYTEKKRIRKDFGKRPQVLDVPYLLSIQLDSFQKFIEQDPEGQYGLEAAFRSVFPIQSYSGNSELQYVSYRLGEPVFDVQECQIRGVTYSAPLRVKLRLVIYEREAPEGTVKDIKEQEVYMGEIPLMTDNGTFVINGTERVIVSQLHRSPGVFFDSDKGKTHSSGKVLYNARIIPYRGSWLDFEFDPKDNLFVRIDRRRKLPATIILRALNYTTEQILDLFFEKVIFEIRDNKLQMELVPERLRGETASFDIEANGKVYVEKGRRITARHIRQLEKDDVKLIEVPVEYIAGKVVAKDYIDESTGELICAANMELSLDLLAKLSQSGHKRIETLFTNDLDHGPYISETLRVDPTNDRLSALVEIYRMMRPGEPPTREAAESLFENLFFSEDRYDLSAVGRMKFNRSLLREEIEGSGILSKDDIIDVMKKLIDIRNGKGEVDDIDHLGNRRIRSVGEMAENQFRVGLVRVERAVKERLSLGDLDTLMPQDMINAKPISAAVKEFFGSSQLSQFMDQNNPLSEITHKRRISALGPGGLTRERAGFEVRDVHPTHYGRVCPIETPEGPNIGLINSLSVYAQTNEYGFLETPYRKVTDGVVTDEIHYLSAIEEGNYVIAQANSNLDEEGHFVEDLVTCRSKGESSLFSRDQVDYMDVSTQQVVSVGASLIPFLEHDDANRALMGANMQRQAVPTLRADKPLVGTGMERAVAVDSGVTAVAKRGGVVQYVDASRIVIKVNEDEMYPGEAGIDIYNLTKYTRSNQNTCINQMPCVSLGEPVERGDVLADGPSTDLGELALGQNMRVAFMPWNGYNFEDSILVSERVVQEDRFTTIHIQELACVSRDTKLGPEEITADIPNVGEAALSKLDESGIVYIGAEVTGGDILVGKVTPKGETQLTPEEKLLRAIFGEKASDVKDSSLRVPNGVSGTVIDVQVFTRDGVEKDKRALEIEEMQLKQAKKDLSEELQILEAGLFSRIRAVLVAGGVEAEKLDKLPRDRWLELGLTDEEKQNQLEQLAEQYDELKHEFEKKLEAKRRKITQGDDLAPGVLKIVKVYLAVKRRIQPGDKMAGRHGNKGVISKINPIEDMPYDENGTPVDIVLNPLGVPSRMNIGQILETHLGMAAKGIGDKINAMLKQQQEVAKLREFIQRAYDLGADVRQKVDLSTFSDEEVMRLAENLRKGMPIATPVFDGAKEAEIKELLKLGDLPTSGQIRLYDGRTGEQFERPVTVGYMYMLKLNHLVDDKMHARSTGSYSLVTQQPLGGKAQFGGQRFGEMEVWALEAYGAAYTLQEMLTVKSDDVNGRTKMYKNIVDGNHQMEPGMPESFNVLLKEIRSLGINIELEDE", "sequence (P0A8T7 whole entry, chain 3 of 3, further chain, the tested form may be a part)": "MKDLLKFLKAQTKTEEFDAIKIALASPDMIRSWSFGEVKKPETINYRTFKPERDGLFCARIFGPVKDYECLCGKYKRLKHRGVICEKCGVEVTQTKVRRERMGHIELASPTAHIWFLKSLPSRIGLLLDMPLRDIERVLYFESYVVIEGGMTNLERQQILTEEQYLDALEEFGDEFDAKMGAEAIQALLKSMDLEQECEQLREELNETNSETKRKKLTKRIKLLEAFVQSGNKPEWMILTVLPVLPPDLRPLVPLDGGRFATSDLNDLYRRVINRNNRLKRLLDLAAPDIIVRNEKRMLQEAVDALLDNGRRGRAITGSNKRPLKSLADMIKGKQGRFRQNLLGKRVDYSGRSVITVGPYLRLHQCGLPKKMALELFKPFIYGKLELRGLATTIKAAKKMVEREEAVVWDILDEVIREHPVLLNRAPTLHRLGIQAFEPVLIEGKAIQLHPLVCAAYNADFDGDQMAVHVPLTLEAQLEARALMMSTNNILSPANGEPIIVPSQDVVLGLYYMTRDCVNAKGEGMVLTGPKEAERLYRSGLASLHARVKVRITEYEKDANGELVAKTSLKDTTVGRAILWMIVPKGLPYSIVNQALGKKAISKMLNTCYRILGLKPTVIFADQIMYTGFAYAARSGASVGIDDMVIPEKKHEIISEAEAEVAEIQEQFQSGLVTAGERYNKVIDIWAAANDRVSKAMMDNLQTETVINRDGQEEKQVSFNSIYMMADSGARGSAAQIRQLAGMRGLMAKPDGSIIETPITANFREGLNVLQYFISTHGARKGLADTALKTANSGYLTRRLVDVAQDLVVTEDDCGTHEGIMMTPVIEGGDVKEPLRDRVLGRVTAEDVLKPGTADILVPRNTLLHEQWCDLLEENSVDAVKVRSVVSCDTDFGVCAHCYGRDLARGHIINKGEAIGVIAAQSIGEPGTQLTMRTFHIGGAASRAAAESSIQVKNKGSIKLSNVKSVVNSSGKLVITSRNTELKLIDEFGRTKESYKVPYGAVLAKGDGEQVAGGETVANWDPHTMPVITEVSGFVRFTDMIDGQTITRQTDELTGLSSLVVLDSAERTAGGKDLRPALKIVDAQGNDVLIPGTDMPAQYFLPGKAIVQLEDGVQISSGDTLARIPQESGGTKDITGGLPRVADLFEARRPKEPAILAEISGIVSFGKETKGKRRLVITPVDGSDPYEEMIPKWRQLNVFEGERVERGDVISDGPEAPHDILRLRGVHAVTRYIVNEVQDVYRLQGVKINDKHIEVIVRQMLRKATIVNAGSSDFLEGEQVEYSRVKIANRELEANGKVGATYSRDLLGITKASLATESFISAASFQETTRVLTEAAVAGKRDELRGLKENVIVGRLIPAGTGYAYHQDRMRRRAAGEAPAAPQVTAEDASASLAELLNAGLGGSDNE", "data": [{"substance": "NusA NTD with N-terminal deletion, Δ(3-18) NTD (from UniProt P0AFF6 1-137) (domain or fragment)", "values": [{"measurement": "maximal pause stimulation k0/kNusA, his pause, scaffold", "result": 1.27}]}]}
